Series [1] deals with the molecule itself. The series can be described thus: SEC; size-exclusion chromatography of the purified protein immediately prior to reconstitution into liposomes; peak integrals quantified in % of the total population to estimate the oligomeric states.
Series [2] in a line: size-exclusion chromatography. The conditions noted are these: glycan lost; control: wild-type AQP2 (same construct). In general terms: SEC sorts molecules by how far they enter the pores of the column.

Numbering of substitutions follows the chain as printed. Names may count otherwise.

B1: human aquaporin-2 (AQP2), truncated after residue 242 (domain or fragment, UniProt P41181 1-242, looked up)
chain: MWELRSIAFSRAVFAEFLATLLFVFFGLGSALNWPQALPSVLQIAMAFGLGIGTLVQALGHISGAHINPAVTVACLVGCHVSVLRAAFYVAAQLLGAVAGAALLHEITPADIRGDLAVNALSNSTTAGQAVTVELFLTLQLVLCIFASTDERRGENPGTPALSIGFSVALGHLLGIHYTGCSMNPARSLAPAVVTGKFDDHWVFWIGPLVGAILGSLLYNYVLFPPAKSLSERLAVLKGLEP
notes: aquaporin-2 (AQP2), human, C-terminal truncation at P242; the construct used for the structure PDB 4NEF; His-tag removed by TEV protease before SEC; also called wild-type AQP2; hAQP2; source: Pichia pastoris X33, purified (IMAC, TEV cleavage, second IMAC, SEC); not shown: His8, N-terminal, cleaved
Broadly, the stoichiometry N is a count of units in the complex or per binding partner. B1: in series [1], the “stoichiometry N” value was 4.

B2: human aquaporin-2 (AQP2) T125M, truncated after residue 242 (domain or fragment, UniProt P41181 1-242, looked up)
chain: B1 chain with T125M
notes: aquaporin-2 (AQP2), human, C-terminal truncation at P242, with the recessive NDI patient mutation T125M; Mutation identified in patients with autosomal recessive NDI; same construct limits as m1; source: Pichia pastoris X33, purified (IMAC, TEV cleavage, second IMAC, SEC); not shown: His8, N-terminal, cleaved
As to B2, the “stoichiometry N” value in series [1] was 4.

B3: aquaporin-2 (AQP2): T125M (protein)
parent chain: MWELRSIAFSRAVFAEFLATLLFVFFGLGSALNWPQALPSVLQIAMAFGLGIGTLVQALGHISGAHINPAVTVACLVGCHVSVLRAAFYVAAQLLGAVAGAALLHEITPADIRGDLAVNALSNSTTAGQAVTVELFLTLQLVLCIFASTDERRGENPGTPALSIGFSVALGHLLGIHYTGCSMNPARSLAPAVVTGKFDDHWVFWIGPLVGAILGSLLYNYVLFPPAKSLSERLAVLKGLEPDTDWEEREVRRRQSVELHSPQSLPRGTKA
With B3, the oligomerisation result in series [2] is reported as “no change”.

The values are drawn from PMC10482962, “Structural and functional analysis of aquaporin-2 mutants involved in nephrogenic diabetes insipidus” (Scientific Reports, 2023).
